# Experimental data: patent publication US20200332324
# T1: E. coli type II fatty acid synthase ACP (AcpP), P0A6A8
# T1 chain: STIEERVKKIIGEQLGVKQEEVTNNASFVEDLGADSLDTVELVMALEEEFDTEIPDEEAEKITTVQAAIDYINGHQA
# Target: T1, E. coli type II fatty acid synthase ACP …
protein,measurement,value
4'-phosphopantetheinyl transferase Sfp from Bacillus subtilis (protein) MKIYGIYMDRPLSQEENERFMSFISPEKREKCRRFYHKEDAHRTLLGDVLVRSVISRQYQLDKSDIRFSTQEYGKPCIPDLPDAHFNISHSGRWVICAFDSQPIGIDIEKTKPISLEIAKRFFSKTEYSDLLAKDKDEQTDYFYHLWSMKESFIKQEGKGLSLPLDSFSVRLHQDGQVSIELPDSHSPCYIKTYEVDPGYKMAVCAAHPDFPEDITMVSYEELL,"ACP phosphopantetheinylation with fluorescently labeled CoA (TAMRA-CoA), SDS-PAGE, UV fluorescence",protein extracts from all the recombinant cyanobacteria strains constructed here allowed the conversion of E. coli ACP to its fluorescently labeled derivative
